Experimental data from patent CN118050507A.

Target: O型FMDV流行毒株 (Foot-and-mouth disease virus serotype O)
Experiment: cell-based or functional assay

B1: O型口蹄疫病毒中和抗体Ab1 (VHH)
VHH: QVQLQESGGGLVQPGGSLRLSCAASGTPFSGGSINEISINHLGWYRQAPGKERELVAAITRGGSTYYADSVKGRFAISRDDAKKMVYLQMNSLKPEDTAVYYCNGLRASTAQWEESETTWGQGTQVTVSS
  Neu 50 (病毒中和试验): 0.8 µmol/L
